Results published in patent publication US20240400677A1 (ELECTRA THERAPEUTICS, published 2024).

T1: cynomolgus monkey SIRPα on CHO cells (cynomolgus monkey, UniProt A0A2K5VYQ9 31-507)
T1 construct: whole, on cells; also called Cyno SIRPα CHO
T1 sequence: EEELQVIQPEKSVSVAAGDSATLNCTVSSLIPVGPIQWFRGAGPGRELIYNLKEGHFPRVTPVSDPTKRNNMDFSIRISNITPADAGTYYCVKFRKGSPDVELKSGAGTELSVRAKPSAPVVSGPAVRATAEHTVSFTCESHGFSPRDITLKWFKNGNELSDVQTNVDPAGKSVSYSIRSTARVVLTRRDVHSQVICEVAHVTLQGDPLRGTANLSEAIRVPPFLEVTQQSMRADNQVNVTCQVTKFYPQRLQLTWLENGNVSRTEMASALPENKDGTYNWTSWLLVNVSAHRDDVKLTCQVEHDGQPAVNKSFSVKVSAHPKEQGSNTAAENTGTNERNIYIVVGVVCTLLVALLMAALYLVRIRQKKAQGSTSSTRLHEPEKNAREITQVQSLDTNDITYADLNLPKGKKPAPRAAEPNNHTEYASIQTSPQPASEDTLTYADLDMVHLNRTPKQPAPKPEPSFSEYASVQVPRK

T2: cynomolgus monkey SIRPγ on CHO cells (cynomolgus monkey, UniProt Q9P1W8 29-386 (human entry))
T2 construct: also called Cyno SIRPγ CHO
T2 chain: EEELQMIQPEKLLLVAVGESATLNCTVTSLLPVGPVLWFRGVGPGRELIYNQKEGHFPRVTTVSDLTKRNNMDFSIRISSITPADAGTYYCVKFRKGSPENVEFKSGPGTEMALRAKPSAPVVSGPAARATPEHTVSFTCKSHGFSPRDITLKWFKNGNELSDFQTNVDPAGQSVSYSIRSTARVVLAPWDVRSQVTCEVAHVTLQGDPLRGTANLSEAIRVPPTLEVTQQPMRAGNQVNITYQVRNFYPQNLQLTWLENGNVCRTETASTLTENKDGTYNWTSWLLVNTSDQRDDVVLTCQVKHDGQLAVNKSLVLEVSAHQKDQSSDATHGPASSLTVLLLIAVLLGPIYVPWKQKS


Tests used:
[1] = target: T1, cynomolgus monkey SIRPα on CHO cells; assay: flow cytometry, CHO transfectants, anti-human IgG
Description: (§1) Selected antibodies were tested for binding to stably transfected human SIRPγ, SIRPαV1, or SIRPβ1 (co-transfected with DAP12) Chinese hamster ovary (CHO) cells via flow cytometry. A titration of select antibodies was added to the cells and detected using a fluorescently labelled secondary anti-rat IgG antibody or anti-human IgG antibody. Graphs depict the median fluorescence intensity (MFI) at each concentration. FIGS. 5A and 5G show the binding curves of select antibodies to human SIRPγ, cynomolgus monkey SIRPγ, human SIRPα, cynomolgus monkey SIRPα, human SIRPβ1, or cynomolgus monkey SIRPβl-expressing CHO cells detected using an anti-rat IgG antibody. FIGS. 5B-5F and 5H-5L show the binding curves of select antibodies to human SIRPγ, cynomolgus monkey SIRPγ, human SIRPα, cynomolgus monkey SIRPα, human SIRPβ1, or cynomolgus monkey SIRPβ1-expressing CHO cells detected using an anti-human IgG antibody. […] For select antibodies, each myc-tagged SIRPγ scFv antibody as crude PPE was incubated with each of the SIRP-expressing cell lines stated above along with the parental CHO-K1 cell line. […] Fold change value <2.0 is considered a non-binder.

[2] = target: T3, human SIRPβ1 on CHO cells (co-transfected with DAP12) (human, UniProt O00241 30-398); assay: flow cytometry, CHO transfectants, anti-human IgG
T3 construct: whole, on cells; co-transfected with DAP12; also called Human SIRPβ1 CHO
Description: as §1

[3] = target: T2, cynomolgus monkey SIRPγ on CHO cells; assay: flow cytometry, myc-scFv PPE
Description: as §1

[4] = target: T4, human SIRPγ on stably transfected CHO cells (human, UniProt Q9P1W8 29-387); assay: flow cytometry, myc-scFv PPE
T4 construct: also called Human SIRPγ CHO
Description: as §1

[5] = target: T1, cynomolgus monkey SIRPα on CHO cells; assay: flow cytometry
[6] = target: T3, human SIRPβ1 on CHO cells …; assay: flow cytometry
[7] = target: T5, human SIRPγ-His monomer protein (human, UniProt Q9P1W8 29-360); assay: BLI Octet, V5-scFv PPE captured, SIRP-His 500 nM
T5 construct: also called hSIRPγ
T5 sequence (Q9P1W8 29-360 limits assumed): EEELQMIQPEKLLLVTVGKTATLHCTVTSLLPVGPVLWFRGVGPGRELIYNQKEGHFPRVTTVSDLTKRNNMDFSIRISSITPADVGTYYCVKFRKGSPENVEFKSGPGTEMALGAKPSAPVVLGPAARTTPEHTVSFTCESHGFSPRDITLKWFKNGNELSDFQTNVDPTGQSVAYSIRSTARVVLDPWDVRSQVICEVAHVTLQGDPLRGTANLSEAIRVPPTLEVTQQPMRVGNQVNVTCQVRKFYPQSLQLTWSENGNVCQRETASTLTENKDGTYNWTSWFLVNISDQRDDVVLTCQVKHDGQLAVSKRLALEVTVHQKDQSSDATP

T4 sequence (Q9P1W8 29-387 limits assumed): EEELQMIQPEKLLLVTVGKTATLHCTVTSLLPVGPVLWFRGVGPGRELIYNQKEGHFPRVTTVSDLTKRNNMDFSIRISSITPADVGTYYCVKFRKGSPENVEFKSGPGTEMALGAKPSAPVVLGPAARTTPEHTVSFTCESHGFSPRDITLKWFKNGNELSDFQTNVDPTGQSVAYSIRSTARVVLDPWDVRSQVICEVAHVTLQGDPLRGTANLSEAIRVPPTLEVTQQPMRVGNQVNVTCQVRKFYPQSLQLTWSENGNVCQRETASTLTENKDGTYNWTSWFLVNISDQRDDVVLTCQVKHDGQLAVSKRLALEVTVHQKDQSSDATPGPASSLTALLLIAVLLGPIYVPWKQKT
T3 sequence (O00241 30-398): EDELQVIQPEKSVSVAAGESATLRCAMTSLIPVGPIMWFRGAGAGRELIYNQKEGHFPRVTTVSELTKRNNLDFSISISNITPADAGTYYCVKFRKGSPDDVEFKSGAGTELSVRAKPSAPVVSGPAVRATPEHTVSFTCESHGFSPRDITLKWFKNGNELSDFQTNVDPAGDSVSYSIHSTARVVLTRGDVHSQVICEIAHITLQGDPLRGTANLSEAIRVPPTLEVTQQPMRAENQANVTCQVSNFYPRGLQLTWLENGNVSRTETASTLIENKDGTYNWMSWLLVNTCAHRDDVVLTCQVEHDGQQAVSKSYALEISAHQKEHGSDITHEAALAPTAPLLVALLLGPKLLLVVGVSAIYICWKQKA

binding result [1] | binding result [2] | MFI fold change over parental CHO [3] [fold] | MFI fold change over parental CHO [4] [fold] | binding result [5] | binding result [6] | kdis [7] [s⁻¹] | Binder
no binding (tested: about 20 µg/mL) | no binding (tested: about 20 µg/mL) | – | – | – | – | – | Antibody 75 (antibody, V domains shown) VH: QVQLVQSGAEVKKPGSSVKVSCKASGGTFSNYAISWVRQAPGQGLEWMGGIIPIFGSTASYAQKFQGRVTITADESTSTAYMELSSLRSEDTAVYYCARGVGDDTLTDWGQGTLVTVSS VL: DIVMTQSPLSLPVTPGEPASISCRSSQSLLHSNGYNYLDWYLQKPGQSPQLLIYAASSLQSGVPDRFSGSGSGTDFTLKISRVEAEDVGVYYCMQALQTPLTFGGGTKVEIK
– | – | 6.94 | 5.97 | no binding (tested: fold change <2.0) | no binding (tested: fold change <2.0) | > 0.01 | Antibody 53 (scFv, V domains shown, scFv in crude PPE, V5/myc-tagged) VH: QVQLVQSGAEVKKPGASVKVSCKASGHTFNNNYIHWVRQAPGQGLEWMGIINPSGGSTSYAQKFQGRVTMTRDTSTSTVYMELSSLRSEDTAVYYCARQIQDYGYYYYGMDVWGQGTTVTVSS VL: EIVMTQSPATLSVSPGERATLSCRASQSVSKYLAWYQQKPGQAPRLLIYAISARAAGIPARFSGSGSGTEFTLTISSLQSEDFAVYYCQQYYSSPPTFGQGTKVEIK
– | – | 16.3 | 14.7 | no binding (tested: fold change <2.0) | no binding (tested: fold change <2.0) | > 0.01 | Antibody 52 (scFv, V domains shown, scFv in crude PPE, V5/myc-tagged) VH: QVQLVQSGAEVKKPGASVKVSCKASGYTFTSYDINWVRQAPGQGLEWMGWISGYNGNTNYAQKFQGRVTMTRDTSTSTVYMELSSLRSEDTAVYYCARSFDWLLLLDYWGQGTLVTVSS VL: DIQMTQSPSSLSASVGDRVTITCRASQSISSWLAWYQQKPGKAPKLLIYDATTLESGVPSRFSGSGSGTDFTLTISSLQPEDFATYYCQQYDSYPWTFGQGTKLEIK

Continued, binder first:

Binder | binding result [1] | binding result [2] | MFI fold change over parental CHO [3] [fold] | MFI fold change over parental CHO [4] [fold] | binding result [5] | binding result [6] | kdis [7] [s⁻¹]
Antibody 39 (scFv, V domains shown, scFv in crude PPE, V5/myc-tagged) VH: QVQLVQSGAEVKKPGASVKVSCKASGGTFSNYGFSWVRQAPGQGLEWMGWMSPSSGNTGYAQKFQGRVTMTRDTSTSTVYMELSSLRSEDTAVYYCARERSGSYFDYWGQGTLVTVSS VL: EIVMTQSPATLSVSPGERATLSCRASQSVSSYLAWYQQKPGQAPRLLIYGTSTRATGIPARFSGSGSGTEFTLTISSLQSEDFAVYYCQQYGSLPFTFGQGTRLEIK | – | – | 39.5 | 16.4 | no binding (tested: fold change <2.0) | no binding (tested: fold change <2.0) | 0.001 to 0.01
Antibody 44 (scFv, V domains shown, scFv in crude PPE, V5/myc-tagged) VH: QVQLVQSGAEVKKPGSSVKVSCKASGGTFSKIAVSWVRQAPGQGLEWMGLINPNSGGTDYAQKFQGRVTITADESTSTAYMELSSLRSEDTAVYYCAKDFRGGDYYYYGMDVWGQGTTVTVSS VL: EIVMTQSPATLSVSPGERATLSCRASQSVSSNLAWYQQKPGQAPRLLIYGASTRATGIPARFSGSGSGTEFTLTISSLQSEDFAVYYCQQYNTYPITFGQGTKVEIK | – | – | 26.7 | 16 | no binding (tested: fold change <2.0) | no binding (tested: fold change <2.0) | > 0.01
Antibody 38 (scFv, V domains shown, scFv in crude PPE, V5/myc-tagged) VH: QVQLVQSGAEVKKPGASVKVSCKASGGTFSSYDINWVRQAPGQGLEWMGWMNPNSGNTGYAQKFQGRVTMTRDTSTSTVYMELSSLRSEDTAVYYCARDLTLYCSSTSCLDAFDYWGQGTLVTVSS VL: not shown | – | – | 16.7 | 14.8 | no binding (tested: fold change <2.0) | no binding (tested: fold change <2.0) | 0.001 to 0.01
Antibody 36 (scFv, V domains shown, scFv in crude PPE, V5/myc-tagged) VH: QVQLVQSGAEVKKPGASVKVSCKASGYTFTDNYLHWVRQAPGQGLEWMGIIETSGGSTDYAQKFQGRVTMTRDTSTSTVYMELSSLRSEDTAVYYCARSFGGYSYDDAFDIWGQGTTVTVSS VL: DIQMTQSPSSLSASVGDRVTITCQASQGISNYLNWYQQKPGKAPKLLIYAASSLQSGVPSRFSGSGSGTDFTLTISSLQPEDFATYYCQQSYSSPYTFGQGTKVEIK | – | – | 37.7 | 42.4 | no binding (tested: fold change <2.0) | no binding (tested: fold change <2.0) | < 0.001
Antibody 48 (scFv, V domains shown, scFv in crude PPE, V5/myc-tagged) VH: QVQLVQSGAEVKKPGASVKVSCKASGYTFTSYYMHWVRQAPGQGLEWMGWMNPNSGNTGYAQKFQGRVTMTRDTSTSTVYMELSSLRSEDTAVYYCARDQMYSSYGMDVWGQGTTVTVSS VL: DIQMTQSPSSLSASVGDRVTITCRASESITNWLAWYQQKPGKAPKLLIYKASSLESGVPSRFSGSGSGTDFTLTISSLQPEDFATYYCQQSYGTPYTFGQGTKVEIK | – | – | 9.25 | 12.1 | no binding (tested: fold change <2.0) | no binding (tested: fold change <2.0) | 0.001 to 0.01
Antibody 51 (scFv, V domains shown, scFv in crude PPE, V5/myc-tagged) VH: QVQLVQSGAEVKKPGASVKVSCKASGYTFTRYDINWVRQAPGQGLEWMGWMNPNSGNTGYAQKLQGRVTMTRDTSTSTVYMELSSLRSEDTAVYYCARERVGYCSSTSCLHPLDYWGQGTLVTVSS VL: DIQMTQSPSSLSASVGDRVTITCRASQGIRNDLGWYQQKPGKAPKLLIYSASNLQSGVPSRFSGSGSGTDFTLTISSLQPEDFATYYCQQSYDVPLTFGGGTKVEIK | – | – | 18.8 | 20 | no binding (tested: fold change <2.0) | no binding (tested: fold change <2.0) | 0.001 to 0.01
Antibody 45 (scFv, V domains shown, scFv in crude PPE, V5/myc-tagged) VH: QVQLVQSGAEVKKPGASVKVSCKASGYTFTSYGISWVRQAPGQGLEWMGWISAYNGNTNYAQKFQGRVTMTRDTSTSTVYMELSSLRSEDTAVYYCARGTYYDYIWGSYRYSWFDYWGQGTLVTVSS VL: not shown | – | – | 18.2 | 24.3 | no binding (tested: fold change <2.0) | no binding (tested: fold change <2.0) | > 0.01
